Experimental data as given in article PMC4831154, “Expression and characterization of a novel 1,3-regioselective cold-adapted lipase from Rhizomucor endophyticus suitable for biodiesel synthesis” (Biotechnology for Biofuels, 2016).

How the values were obtained:
Experiment in all cases: purified protein
Format in all cases: biochemical, Mucor endophyticus
Conditions in all cases: 50 mM citrate buffer pH 6.0, 40 °C, 5 min
[1] = substrate: CCCCCCCCCCCC(=O)Oc1ccc([N+](=O)[O-])cc1
[2] = substrate: CCCCCCCCCCCCCC(=O)Oc1ccc([N+](=O)[O-])cc1
[3] = substrate: CCCCCCCC(=O)Oc1ccc([N+](=O)[O-])cc1

B1: ReLipA (Mucor endophyticus) (protein)
chain: PAAGTKGETSSAAAPHNNATMTASSYILPPIIPSRTKPGNPAFKGDVNAEAESIAKNKKWYEDHGGNFKNITKRDTETVGGMTMDLPANAPPVTTSTGSGVVTASAAQIANFKLYAGIASTAYCRGVVPLGSWTCNNCLKYVPDGKLLVTFSSLLADTNGFVLRSDSQKTIHLVFRGTNSIRSAITDLIFDLATYSPVSGAKVHRGFLASYKEVVNTYFPVVQAQLTAYPSYKVVISGHSLGGAQALLAGMDLYQRDKRLSPSNLSIYTVGCPRVGNPAFAYYVDSTGIPFSRSVNDRDIVPHVPPQAFGYLHPGVEAWDISSRVQICTANIETNKCSNSIVPFTSFVDHLTYYGINEGLCL
notes: ORF 1167 bp; SP-Sepharose purified
Question: What does the source list for B1?
Answer: Km [1]: 640 ± 60 µM; kcat/Km [1]: 416 M⁻¹ s⁻¹; Km [2]: 100 ± 10 µM; kcat/Km [2]: 1790 M⁻¹ s⁻¹; Km [3]: 2300 ± 210 µM; kcat/Km [3]: 387 M⁻¹ s⁻¹
